Results reported in patent US8410045B2, “Camptothecin-peptide conjugates and pharmaceutical compositions containing the same” (Drais Pharmaceuticals, Inc., priority 2006, dated 2013).
Where two headings read alike, the source gives them in different places. Where a SMILES comes first, the peptide text is derived from it. Where no end group is shown, it is not given here. The star is where a group is joined. X2 = CCc1c2c(nc3ccc(OC(=O)[C@H]4CC[C@H](CNC(=O)CCCCCNC(=O)C5CCC(CN6C(=O)CC(*)C6=O)CC5)CC4)cc13)-c1cc3c(c(=O)n1C2)COC(=O)[C@]3(O)CC; X3 = CCc1c2c(nc3ccc(OC(=O)CCCCCNC(=O)C4CCC(CN5C(=O)CC(*)C5=O)CC4)cc13)-c1cc3c(c(=O)n1C2)COC(=O)[C@]3(O)CC

What was measured:
[1] = system: HCT 116 human epithelial colon carcinoma cells; assay: cells; type: cell-based
Procedure: (§1) Cytotoxic evaluation was performed by seeded cells for 24 h prior to the addition of the therapeutic compound. Cells were incubated for 48 h (37° C.) with different dilutions of the therapeutic compound. Cell viability was then assessed using the WST-1 assay (Roche). The results are expressed as mean cytotoxic concentrations (IC50 value or molar concentration that inhibits 50% of cell viability) that were estimated from sigmoid regression, using Graph Pad Prism 3.02 software.
HCT 116 (ATCC #: CCL-247): human epithelial colon carcinoma cells. Cells were cultured in Mc Coy's 5a medium+1.5 mM L-glutamine and 10% fetal bovine serum. Cells were plated at a density of 8000 cells/well in 96-well plates.

[2] = Stability of conjugates in citrated plasma at 37° C. (half life time, HPLC fluorescence); type: in vitro ADME; settings: dog
Procedure: (§2) The stability of the conjugates was tested in citrated plasma (10% (v/v) sodium citrate buffer, 0.106M) from different species (see Table 1 below). The conjugates at 2.55 μM were incubated at 37° C. in plasma. Samples were analysed using the HPLC fluorescence method described below (see chromatographic equipment and conditions) following TFA/acetonitrile extraction and the amount of free camptothecin, analogs or derivatives thereof (e.g. SN38) released by the conjugates was measured.
(§3) Chromatographic equipment and conditions: 150 μL of each sample were placed in 1.5 mL micro-centrifuge tubes. 450 μL of 5% (v/v) TFA in H2O was added to each tube and the mixture was vortexed for 5 seconds. Samples were then centrifuged at 16000 g, 3 minutes at +4° C. 100 μL of supernatant were placed in 1.5 mL micro-centrifuge tubes. Methanol (100 μL) was then immediately added and vortexed for 5 seconds. Samples were then centrifuged at 16000 g, 3 minutes at room temperature. 150 μL of supernatant were recovered for HPLC analysis. Conjugates, metabolites and camptothecin derivative (i.e. SN38) were separated by high-performance liquid chromatography (HPLC; Agilent 1100 series equipped with a fluorescence detector) using a 4.6×100 mm ([…] particle size) Luna C18(2) column (Phenomenex ref. 00D-4251-E0, Le Pecq, France). The aqueous component of the mobile phase (A) was 0.1% (v/v) TFA in water. The organic modifier (B) was acetonitrile containing 0.1% (v/v) TFA. For the conjugate and its metabolites an elution gradient increasing linearly the proportion of B from 15 to 37% in 2 min, from 37 to 47% in 6 min, followed by 2 min at 90% was applied with a constant flow rate of 1.2 mL/min. The proportion of B was then returned to the initial condition for 3.0 min.
(§4) The half life time of conjugate corresponds to the time necessary to have 50% by mole of free camptothecin, analogs or derivatives thereof released by the conjugates of the invention. In human plasma, the half life time of conjugate DPV1047-linker #1-SN38 (less than 5 mins) was shorter than that of conjugate DPV1047-linker #2-SN38 (6-7 mins), which, in turn, was shorter than that of conjugate DPV1047-linker #3-SN38 (12 mins).
(§5) As in Example II, the stability of these conjugates was tested in either human or dog plasma. Following incubation at 37° C., samples were analyzed after a TFA acetonitrile extraction by the HPLC fluorescence method described in Example II. The in vitro cytotoxicity (IC50) of these compounds was also evaluated.

[3] = as above; type: in vitro ADME, human; settings: human, plasma
Procedure: as §2, §3, §4, §5

[4] = system: NCI-H460 human epithelial lung carcinoma cells; assay: In vitro cytotoxicity (WST-1 cell viability); type: cell-based
Procedure: as §1
NCI-H460 (ATCC#: HTB-177): human epithelial lung carcinoma cells. Cells were cultured in RPMI 1640+glutamax and 10% of fetal bovine serum. Cells were plated at a density of 10,000 cells/well in 96-well plates.

[5] = system: HT-29 tumors; assay: Combination of DPV1047-BCH-SN38 with 5-FU or bevacizumab in the HT-29 tumor model; settings: 5-FU 40 mg/kg i.v. or bevacizumab 2 mg/kg i.p.
Procedure: Mice were implanted with HT-29 tumors and treated by intraperitoneal administration (bevacizumab) or bolus intravenous injection (5-FU or DPV1047-BCH-SN38) at 10 μL/g. […] The T/C ratio was calculated following treatment with either bevacizumab, 5-FU or DPV1047-BCH-SN38. These T/C ratios were used to evaluate the expected T/C for combined treatment with bevacizumab and DPV1047-BCH-SN38, or 5-FU and DPV1047-BCH-SN38 (T/C of DPV1047-BCH-SN38×T/C of bevacizumab or 5-FU). […] The combination index of the two molecules was calculated by dividing the expected T/C by the observed T/C.

[6] = Stability of conjugates in citrated plasma at 37° C. (half life time, HPLC fluorescence); type: in vitro ADME; settings: DPV1047-linker-SN38, 2.55 μM
Procedure: as §2, §3, §4

[7] = line of DPV1047-BCH-SN38 12.5 μmol/kg
[8] = line of DPV1047-BCH-SN38 25 μmol/kg
[9] = time to 50% by mole free SN38 released, read-out: Half life time, Mouse plasma
[10] = DPV1047-linker-SN38, 2.55 μM, citrated plasma, read-out: Half life time, Dog plasma
[11] = DPV1047-linker-SN38, 2.55 μM, citrated plasma, read-out: Half life time, Human plasma

With `CCc1c2c(nc3ccc(OC(=O)[C@H]4CC[C@H](CNC(=O)C5CCC(CN6C(=O)CC(SC[C@H](N)C(=O)N[C@@H](CCCNC(=N)N)C(=O)N[C@@H](CCC(N)=O)C(=O)N[C@H](C(=O)N[C@@H](CCCCN)C(=O)N[C@H](C(=O)N[C@@H](Cc7c[nH]c8ccccc78)C(=O)N[C@@H](Cc7ccccc7)C(=O)N[C@@H](CCC(N)=O)C(=O)N[C@@H](CC(N)=O)C(=O)N[C@@H](CCCNC(=N)N)C(=O)N[C@@H](CCCNC(=N)N)C(=O)N[C@@H](CCSC)C(=O)N[C@@H](CCCCN)C(=O)N[C@@H](Cc7c[nH]c8ccccc78)C(=O)N[C@@H](CCCCN)C(=O)N[C@@H](CCCCN)C(=O)O)[C@@H](C)CC)[C@@H](C)CC)C6=O)CC5)CC4)cc13)-c1cc3c(c(=O)n1C2)COC(=O)[C@]3(O)CC` (some centres unmarked) [Penetratin-linker #5-SN38] as the compound, how does the IC50 ([1]; 24 h) read?
The IC50 was 57 nM.

And the half-life ([2]; Table 10, SN38 conjugates, read-out: Dog Plasma Half life time)?
Its half-life is 2.5 h.

What about the half-life ([3]; Table 10, SN38 conjugates, read-out: Human Plasma Half life time) of the same compound?
The half-life was 1 h.

What about the IC50 ([4]; 24 h) of the same compound?
The IC50 was 53 nM.

For “Tat-linker #7-10 Hydroxycamptothecin: Tat48-60 peptide coupled via linker #7 to 10-Hydroxycamptothecin (GRKKRRQRRRAHQ; also: coupled via linker #7 to 10-hydroxycamptothecin, site not given here; UniProt P04608 48-60, looked up, fragment)”, which IC50 ([1]; Table 15, 48 h continuous exposure, mean of three independent experiments, read-out: Drug concentration that inhibits 50% of cell viability (IC50), HCT 116) is on record?
The IC50 was 158 nM.

And the IC50 ([4]; Table 15, 48 h continuous exposure, mean of three independent experiments, read-out: Drug concentration that inhibits 50% of cell viability (IC50), NCI-H460)?
Its IC50 is 127 nM.

With “bevacizumab: bevacizumab (Avastin®, Roche)” as the compound, how does the “Single treatment Reference drug T/C %” value [5, 7] read?
Its value is 67%.

And the “Single treatment Reference drug T/C %” value [5, 8]?
Its value is 67%.

With `CC[C@@]1(O)C(=O)OCc2c1cc1n(c2=O)Cc2cc3cc(O)ccc3nc2-1` [10-Hydroxycamptothecin, reference compound] as the compound, how does the IC50 ([1]; Homo sapiens, HCT-116, 48 h, read-out: Drug concentration that inhibits 50% of cell viability (IC50), HCT 116) read?
The IC50 was 64 nM.

What about the IC50 ([4]; Homo sapiens, NCI-H460, 48 h, read-out: Drug concentration that inhibits 50% of cell viability (IC50), NCI-H460) of the same compound?
Its IC50 is 21 nM.

Which half-life [6, 9] does the source give for `CCc1c2c(nc3ccc(OC(=O)[C@H]4CC[C@H](CNC(=O)CCCCCNC(=O)C5CCC(CN6C(=O)CC(SC[C@H](N)C(=O)N[C@H](C(=O)N[C@@H](CCCCN)C(=O)N[C@@H](CCCNC(=N)N)C(=O)NCC(=O)N[C@@H](CC(C)C)C(=O)N[C@@H](CCCCN)C(=O)N[C@@H](CC(C)C)C(=O)N[C@@H](CCCNC(=N)N)C(=O)N[C@@H](Cc7c[nH]cn7)C(=O)N[C@H](C(=O)N[C@@H](CCCNC(=N)N)C(=O)N7CCC[C@H]7C(=O)N[C@@H](CCCNC(=N)N)C(=O)N[C@H](C(=O)N[C@H](C(=O)N[C@@H](CCCNC(=N)N)C(=O)N[C@@H](CCSC)C(=O)N[C@@H](CC(=O)O)C(=O)N[C@H](C(=O)O)C(C)C)[C@@H](C)O)C(C)C)C(C)C)C(C)C)C6=O)CC5)CC4)cc13)-c1cc3c(c(=O)n1C2)COC(=O)[C@]3(O)CC` (some centres unmarked) [DPV1047-linker #7-SN38] (H-C(X2)VKRGLKLRHVRPRVTRMDV-OH; N-terminus and C-terminus assumed) here?
The half-life was less than 0.05 h.

And the half-life ([6]; monkey)?
The half-life was 1.5 h.

And the half-life ([6]; rat)?
Its half-life is 0.15 h.

What about the half-life [2, 10] of the same compound?
Its half-life is 2.75 h.

What about the half-life [3, 11] of the same compound?
Its half-life is 2.5 h.

Which results are given for `O=c1[nH]cc(F)c(=O)[nH]1` [5-FU, 5-fluorouracil, reference compound]?
Single treatment Reference drug T/C % [5, 7]: 90%; Single treatment Reference drug T/C % [5, 8]: 94%

Which results are given for `CC[C@H](C)[C@H](NC(=O)[C@H](CCCCN)NC(=O)[C@@H](NC(=O)[C@H](CCC(N)=O)NC(=O)[C@H](CCCNC(=N)N)NC(=O)[C@@H](N)CSC1CC(=O)N(CC2CCC(C(=O)NC[C@H]3CC[C@H](C(=O)Oc4ccc5nc6c(cc5c4)Cn4c-6cc5c(c4=O)COC(=O)[C@]5(O)CC)CC3)CC2)C1=O)[C@@H](C)CC)C(=O)N[C@@H](Cc1c[nH]c2ccccc12)C(=O)N[C@@H](Cc1ccccc1)C(=O)N[C@@H](CCC(N)=O)C(=O)N[C@@H](CC(N)=O)C(=O)N[C@@H](CCCNC(=N)N)C(=O)N[C@@H](CCCNC(=N)N)C(=O)N[C@@H](CCSC)C(=O)N[C@@H](CCCCN)C(=O)N[C@@H](Cc1c[nH]c2ccccc12)C(=O)N[C@@H](CCCCN)C(=O)N[C@@H](CCCCN)C(=O)O` (some centres unmarked)?
IC50 ([1]; 48 h): 194 nM; half-life ([2]; Table 14, 10-Hydroxycamptothecin conjugates, read-out: Dog Plasma Half life time): 1.83 h; half-life ([3]; Table 14, 10-Hydroxycamptothecin conjugates, read-out: Human Plasma Half life time): 0.533 h; IC50 ([4]; 48 h): 161 nM

What does the source list for `CCc1c2c(nc3ccc(OC(=O)CCCCCNC(=O)C4CCC(CN5C(=O)CC(SC[C@H](N)C(=O)N[C@H](C(=O)N[C@@H](CCCCN)C(=O)N[C@@H](CCCNC(=N)N)C(=O)NCC(=O)N[C@@H](CC(C)C)C(=O)N[C@@H](CCCCN)C(=O)N[C@@H](CC(C)C)C(=O)N[C@@H](CCCNC(=N)N)C(=O)N[C@@H](Cc6c[nH]cn6)C(=O)N[C@H](C(=O)N[C@@H](CCCNC(=N)N)C(=O)N6CCC[C@H]6C(=O)N[C@@H](CCCNC(=N)N)C(=O)N[C@H](C(=O)N[C@H](C(=O)N[C@@H](CCCNC(=N)N)C(=O)N[C@@H](CCSC)C(=O)N[C@@H](CC(=O)O)C(=O)N[C@H](C(=O)O)C(C)C)[C@@H](C)O)C(C)C)C(C)C)C(C)C)C5=O)CC4)cc13)-c1cc3c(c(=O)n1C2)COC(=O)[C@]3(O)CC` (some centres unmarked) [DPV1047-linker #4-SN38] (H-C(X3)VKRGLKLRHVRPRVTRMDV-OH)?
half-life [6, 9]: < 0.05 h; half-life ([6]; monkey): 0.5 h; half-life ([6]; rat): 0.05 h; half-life [2, 10]: 1.75 h; half-life [3, 11]: 0.667 h

With `CCc1c2c(nc3ccc(OC(=O)[C@H]4CC[C@H](CNC(=O)C5CCC(CN6C(=O)CC(SCC(N)C(=O)N[C@@H](C(=O)N[C@H](CCCCN)C(=O)N[C@H](CCCNC(=N)N)C(=O)NCC(=O)N[C@H](CC(C)C)C(=O)N[C@H](CCCCN)C(=O)N[C@H](CC(C)C)C(=O)N[C@H](CCCNC(=N)N)C(=O)N[C@H](Cc7c[nH]cn7)C(=O)N[C@@H](C(=O)N[C@H](CCCNC(=N)N)C(=O)N7CCC[C@@H]7C(=O)N[C@H](CCCNC(=N)N)C(=O)N[C@@H](C(=O)N[C@@H](C(=O)N[C@H](CCCNC(=N)N)C(=O)N[C@H](CCSC)C(=O)N[C@H](CC(=O)O)C(=O)N[C@@H](C(=O)O)C(C)C)[C@H](C)O)C(C)C)C(C)C)C(C)C)C6=O)CC5)CC4)cc13)-c1cc3c(c(=O)n1C2)COC(=O)[C@]3(O)CC` (some centres unmarked) [DPV1047(D)-linker #5-SN38] as the compound, how does the IC50 ([1]; 48 h) read?
Its IC50 is 23 nM.

What about the half-life ([2]; Table 12, CPP-linker #5-SN38 conjugates incl. D conformation, read-out: Dog Plasma Half life time) of the same compound?
The half-life was 2.75 h.

What about the half-life ([3]; Table 12, CPP-linker #5-SN38 conjugates incl. D conformation, read-out: Human Plasma Half life time) of the same compound?
Its half-life is 1.83 h.
